Experimental data taken from patent US20150344570A1 (published 2015).

T1: FcγRIIb extracellular domain with C-terminal His tag (human, UniProt P31994 43-217)
T1 construct: extracellular domain; expressed in FreeStyle293 cells; analyte in Biacore; also called FcgRIIb; 2b
T1 sequence (looked up): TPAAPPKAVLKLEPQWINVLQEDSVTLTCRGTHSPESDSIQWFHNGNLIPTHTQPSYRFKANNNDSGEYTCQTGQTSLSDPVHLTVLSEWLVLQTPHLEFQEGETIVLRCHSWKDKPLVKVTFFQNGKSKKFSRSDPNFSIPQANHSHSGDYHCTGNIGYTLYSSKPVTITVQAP

B1: GpH7-A5/GpH7-B3 variant D265_16H/GpL16-k0 (antibody, human IgG1, kappa)
heavy 1: not shown
heavy 2: not shown
light: DIVMTQSPLSLPVTPGEPASISCQASESLVHSNRNTYLHWYLQKPGQSPQLLIYKVSNRFSGVPDRFSGSGSGTDFTLKISRVEAEDVGVYYCSQNTHVPPTFGQGTKVEIERTVAAPSVFIFPPSDEQLKSGTASVVCLLNNFYPREAKVQWKVDNALQSGNSQESVTEQDSKDSTYSLSSTLTLSKADYEKHKVYACEVTHQGLSSPVTKSFNRGEC
notes: He Ab; IgG1, mutation in one H chain
B2: GpH7-A5/GpH7-B3 variant S239_20W/GpL16-k0 (antibody, human IgG1, kappa)
heavy 1: not shown
heavy 2: not shown
light: B1 light
notes: as for B1
B3: GpH7-A5/GpH7-B3 variant D265_12R/GpL16-k0 (antibody, human IgG1, kappa)
heavy 1: not shown
heavy 2: not shown
light: B1 light
notes: as for B1
B4: GpH7-A5/GpH7-B3 variant D265_02A/GpL16-k0 (antibody, human IgG1, kappa)
heavy 1: not shown
heavy 2: not shown
light: B1 light
notes: as for B1
B5: GpH7-A5/GpH7-B3 variant D265_15Y/GpL16-k0 (antibody, human IgG1, kappa)
heavy 1: not shown
heavy 2: not shown
light: B1 light
notes: as for B1
B6: GpH7-A5/GpH7-B3 variant V266_13S/GpL16-k0 (antibody, human IgG1, kappa)
heavy 1: not shown
heavy 2: not shown
light: B1 light
notes: as for B1
B7: GpH7-A5/GpH7-B3 variant V266_05P/GpL16-k0 (antibody, human IgG1, kappa)
heavy 1: not shown
heavy 2: not shown
light: B1 light
notes: as for B1
B8: GpH7-A5/GpH7-B3 variant D265_10E/GpL16-k0 (antibody, human IgG1, kappa)
heavy 1: not shown
heavy 2: not shown
light: B1 light
notes: as for B1
B9: GpH7-A5/GpH7-B3 variant D265_11K/GpL16-k0 (antibody, human IgG1, kappa)
heavy 1: not shown
heavy 2: not shown
light: B1 light
notes: as for B1
B10: GpH7-A5/GpH7-B3 variant D265_06M/GpL16-k0 (antibody, human IgG1, kappa)
heavy 1: not shown
heavy 2: not shown
light: B1 light
notes: as for B1
B11: GpH7-A5/GpH7-B3 variant V266_09D/GpL16-k0 (antibody, human IgG1, kappa)
heavy 1: not shown
heavy 2: not shown
light: B1 light
notes: as for B1
B12: GpH7-A5/GpH7-B3 variant D265_18N/GpL16-k0 (antibody, human IgG1, kappa)
heavy 1: not shown
heavy 2: not shown
light: B1 light
notes: as for B1
B13: GpH7-A5/GpH7-B3 variant V266_01G/GpL16-k0 (antibody, human IgG1, kappa)
heavy 1: not shown
heavy 2: not shown
light: B1 light
notes: as for B1
B14: GpH7-A5/GpH7-B3 variant D265_03V/GpL16-k0 (antibody, human IgG1, kappa)
heavy 1: not shown
heavy 2: not shown
light: B1 light
notes: as for B1
B15: GpH7-A5/GpH7-B3 variant D265_04F/GpL16-k0 (antibody, human IgG1, kappa)
heavy 1: not shown
heavy 2: not shown
light: B1 light
notes: as for B1
B16: GpH7-A5/GpH7-B3 variant V266_11K/GpL16-k0 (antibody, human IgG1, kappa)
heavy 1: not shown
heavy 2: not shown
light: B1 light
notes: as for B1
B17: GpH7-A5/GpH7-B3 variant D265_13S/GpL16-k0 (antibody, human IgG1, kappa)
heavy 1: not shown
heavy 2: not shown
light: B1 light
notes: as for B1
B18: GpH7-A5/GpH7-B3 variant V266_10E/GpL16-k0 (antibody, human IgG1, kappa)
heavy 1: not shown
heavy 2: not shown
light: B1 light
notes: as for B1

Biological target: T2, FcγRIa extracellular domain with C-terminal His tag (human, UniProt P12314 16-292)
T2 construct: extracellular domain; expressed in FreeStyle293 cells; analyte in Biacore; also called FcgRI; 1a
T2 sequence (P12314 16-292): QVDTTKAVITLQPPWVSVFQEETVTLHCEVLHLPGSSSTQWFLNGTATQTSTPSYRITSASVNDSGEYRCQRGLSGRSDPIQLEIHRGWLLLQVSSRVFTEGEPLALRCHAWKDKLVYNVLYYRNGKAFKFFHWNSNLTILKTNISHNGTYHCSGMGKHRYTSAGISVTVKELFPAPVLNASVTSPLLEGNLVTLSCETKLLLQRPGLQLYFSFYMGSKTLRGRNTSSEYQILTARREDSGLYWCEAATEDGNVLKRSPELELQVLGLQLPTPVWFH
Assay: SPR (Biacore); He/Con_1a divided by He/Con_2b (FcγRIIb as reference)

| He_1a/2b (Ia/IIb) [ratio] | Binder |
| --- | --- |
| 2.23 | B1 |
| 2.06 | B2 |
| 2.96 | B3 |
| 4.25 | B4 |
| 73.5 | B5 |
| 1.67 | B6 |
| 205 | B7 |
| 2.66 | B8 |
| 2.9 | B9 |
| 7.57 | B10 |
| 7.88 | B11 |
| 4.52 | B12 |
| 1.77 | B13 |
| 17.3 | B14 |
| 16.8 | B15 |
| 63.5 | B16 |
| 6.07 | B17 |
| 5.37 | B18 |

Biological target: T2, FcγRIa extracellular domain with …
Assay: SPR (Biacore), captured antibody, FcγR as analyte; relative binding

| He/Con_1a | Binder |
| --- | --- |
| 85.4 % of HeCon Ab (GpH7-A5/GpH7-B3/GpL16-k0 = 100) | B1 |
| 92.7 % of HeCon Ab (GpH7-A5/GpH7-B3/GpL16-k0 = 100) | B2 |
| 44.3 % of HeCon Ab (GpH7-A5/GpH7-B3/GpL16-k0 = 100) | B3 |
| 84.5 % of HeCon Ab (GpH7-A5/GpH7-B3/GpL16-k0 = 100) | B4 |
| 44.3 % of HeCon Ab (GpH7-A5/GpH7-B3/GpL16-k0 = 100) | B5 |
| 90.6 % of HeCon Ab (GpH7-A5/GpH7-B3/GpL16-k0 = 100) | B6 |
| 71.9 % of HeCon Ab (GpH7-A5/GpH7-B3/GpL16-k0 = 100) | B7 |
| 101 % of HeCon Ab (GpH7-A5/GpH7-B3/GpL16-k0 = 100) | B8 |
| 43.2 % of HeCon Ab (GpH7-A5/GpH7-B3/GpL16-k0 = 100) | B9 |
| 75.7 % of HeCon Ab (GpH7-A5/GpH7-B3/GpL16-k0 = 100) | B10 |
| 79.3 % of HeCon Ab (GpH7-A5/GpH7-B3/GpL16-k0 = 100) | B11 |
| 27.7 % of HeCon Ab (GpH7-A5/GpH7-B3/GpL16-k0 = 100) | B12 |
| 91.3 % of HeCon Ab (GpH7-A5/GpH7-B3/GpL16-k0 = 100) | B13 |
| 55.7 % of HeCon Ab (GpH7-A5/GpH7-B3/GpL16-k0 = 100) | B14 |
| 53 % of HeCon Ab (GpH7-A5/GpH7-B3/GpL16-k0 = 100) | B15 |
| 64.4 % of HeCon Ab (GpH7-A5/GpH7-B3/GpL16-k0 = 100) | B16 |
| 68.7 % of HeCon Ab (GpH7-A5/GpH7-B3/GpL16-k0 = 100) | B17 |
| 81.9 % of HeCon Ab (GpH7-A5/GpH7-B3/GpL16-k0 = 100) | B18 |

Biological target: T1, FcγRIIb extracellular domain with …
Assay: as above

| He/Con_2b | Binder |
| --- | --- |
| 38.3 % of HeCon Ab (GpH7-A5/GpH7-B3/GpL16-k0 = 100) | B1 |
| 45.1 % of HeCon Ab (GpH7-A5/GpH7-B3/GpL16-k0 = 100) | B2 |
| 15 % of HeCon Ab (GpH7-A5/GpH7-B3/GpL16-k0 = 100) | B3 |
| 19.9 % of HeCon Ab (GpH7-A5/GpH7-B3/GpL16-k0 = 100) | B4 |
| 0.6 % of HeCon Ab (GpH7-A5/GpH7-B3/GpL16-k0 = 100) | B5 |
| 54.4 % of HeCon Ab (GpH7-A5/GpH7-B3/GpL16-k0 = 100) | B6 |
| 0.4 % of HeCon Ab (GpH7-A5/GpH7-B3/GpL16-k0 = 100) | B7 |
| 38.2 % of HeCon Ab (GpH7-A5/GpH7-B3/GpL16-k0 = 100) | B8 |
| 14.9 % of HeCon Ab (GpH7-A5/GpH7-B3/GpL16-k0 = 100) | B9 |
| 10 % of HeCon Ab (GpH7-A5/GpH7-B3/GpL16-k0 = 100) | B10 |
| 10.1 % of HeCon Ab (GpH7-A5/GpH7-B3/GpL16-k0 = 100) | B11 |
| 6.1 % of HeCon Ab (GpH7-A5/GpH7-B3/GpL16-k0 = 100) | B12 |
| 51.5 % of HeCon Ab (GpH7-A5/GpH7-B3/GpL16-k0 = 100) | B13 |
| 3.2 % of HeCon Ab (GpH7-A5/GpH7-B3/GpL16-k0 = 100) | B14 |
| 3.2 % of HeCon Ab (GpH7-A5/GpH7-B3/GpL16-k0 = 100) | B15 |
| 1 % of HeCon Ab (GpH7-A5/GpH7-B3/GpL16-k0 = 100) | B16 |
| 11.3 % of HeCon Ab (GpH7-A5/GpH7-B3/GpL16-k0 = 100) | B17 |
| 15.2 % of HeCon Ab (GpH7-A5/GpH7-B3/GpL16-k0 = 100) | B18 |
